Assay results taken from publication PMC6181050.

What was measured:
[1] = target: PSI core complex (Chlamydomonas reinhardtii) (UniProt P12154); test: co-purification by sucrose density gradient ultracentrifugation with immunoblotting; PSI-LHCI complex from the ΔLHCA5 mutant (no LHCA5); thylakoids solubilised with 1% beta-DDM; SW41Ti, 288,000g, 4°C, 16 h; immunoblots normalised to PSAD
[2] = target: PSI core complex (Chlamydomonas reinhardtii) (UniProt P12154); test: co-purification by sucrose density gradient ultracentrifugation with 14C autoradiography; PSI-LHCI supercomplex from uniformly 14C-labelled wild-type cells; NaBr-washed thylakoids solubilised with 0.8% beta-DDM; TLS-55 rotor, 259,000g, 2.5 h; polypeptides separated by three SDS-PAGE systems; signal divided by carbon number and normalised to PSAF
[3] = target: PSAF (Chlamydomonas reinhardtii); test: as above

UniProt P12154, sequence (P12154 whole entry, looked up, one chain of several): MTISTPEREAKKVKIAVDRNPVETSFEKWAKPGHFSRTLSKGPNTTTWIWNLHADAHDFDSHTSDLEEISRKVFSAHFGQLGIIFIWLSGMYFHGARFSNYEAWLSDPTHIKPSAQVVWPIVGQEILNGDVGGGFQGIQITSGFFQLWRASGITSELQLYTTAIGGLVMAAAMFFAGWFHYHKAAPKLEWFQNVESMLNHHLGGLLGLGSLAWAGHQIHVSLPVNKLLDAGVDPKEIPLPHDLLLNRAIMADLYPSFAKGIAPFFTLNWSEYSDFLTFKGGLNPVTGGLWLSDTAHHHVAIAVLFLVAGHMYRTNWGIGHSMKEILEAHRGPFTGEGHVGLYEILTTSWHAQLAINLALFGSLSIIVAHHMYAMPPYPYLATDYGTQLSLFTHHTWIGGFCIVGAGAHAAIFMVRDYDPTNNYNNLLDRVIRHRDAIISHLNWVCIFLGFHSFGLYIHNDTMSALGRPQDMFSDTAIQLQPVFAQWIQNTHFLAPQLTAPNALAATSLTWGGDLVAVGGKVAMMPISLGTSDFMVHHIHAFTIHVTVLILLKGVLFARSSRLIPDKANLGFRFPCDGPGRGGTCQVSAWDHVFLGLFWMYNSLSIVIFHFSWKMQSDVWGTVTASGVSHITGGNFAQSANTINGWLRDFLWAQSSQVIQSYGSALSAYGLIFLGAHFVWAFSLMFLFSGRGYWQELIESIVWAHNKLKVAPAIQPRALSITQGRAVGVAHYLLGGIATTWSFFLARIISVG

Substance | stoichiometry N (copy, on a PSAF basis) [2] | other results
LHCA1 (natural protein) |  | amount in the PSI-LHCI supercomplex from the ΔLHCA5 mutant, percent of the control level [1]: 50%; stoichiometry N (copies, on a PSAF basis) [2]: 1.81
LHCA2 (natural protein) | 1 | 
LHCA3 (natural protein) | 1 | 
LHCA5 (natural protein) | 1 | 
LHCA7 (natural protein) | 1 | 
LHCA8 (natural protein) | 1 | 
LHCA9 (natural protein) | 1 | 
PSAD (natural protein) |  | stoichiometry N (relative abundance, on a PSAF basis) [3]: 1.17
